Molecular target: FZDs (endogenous Frizzled receptors of the cells used: HEK293T cells; CSPG4 KO HeLa cells)
Experiment: cell-based or functional assay

TcdB^GFE (full length TcdB with 1595VNFLQS replaced by GFE) (from UniProt P18177 1-2366)
toxicity on CSPG4 KO HeLa cells, cell-rounding assay (CR50), against WT TcdB: 190 fold

Source: patent US20200339636A1
